Experimental data published in publication PMC10963267, “Rapid discovery of high-affinity antibodies via massively parallel sequencing, ribosome display and affinity screening” (Nature Biomedical Engineering, 2023).
Substitutions are numbered along the chain they refer to. Names may count otherwise. One block for each binder: values may come before it.

Experiments:
[1] = molecular target: T1, human epidermal growth factor receptor 2 (HER2), biotinylated (Homo sapiens, UniProt P04626, biotin); assay: BLI; human HER2–biotin (5 µg ml^−1, 30 s) loaded on SA tip; purified Fab at 20 nM; DPBS with 0.1% BSA and 0.02% Tween 20; association 300 s, dissociation 600 s; one concentration, 1:1 fit; conditions: both partners purified
T1 construct: biotinylated human HER2, bought; also called ERBB2; source: bought: Acro Biosystems (HE2-H822R)

[2] = molecular target: T2, hen egg lysozyme (HEL), biotinylated (Gallus gallus (hen egg white), UniProt P00698, biotin); assay: BLI; HEL–biotin (25 µg ml^−1, 400 s) loaded on SA tip; nanobody from periplasmic extract at 50 nM in SuperBlock PBS; association 400 or 500 s, dissociation 600 s; referenced to a non-loaded SA tip; one concentration, 1:1 fit; Octet Red384; conditions: one partner purified
T2 construct: hen egg lysozyme, bought as HEL–biotin; In deep screening it was pre-complexed 1:1 with AF532-labelled streptavidin; in BLI it was loaded on a streptavidin tip; source: bought: GeneTex (GTX82960-pro)
T2 sequence (P00698 19-147): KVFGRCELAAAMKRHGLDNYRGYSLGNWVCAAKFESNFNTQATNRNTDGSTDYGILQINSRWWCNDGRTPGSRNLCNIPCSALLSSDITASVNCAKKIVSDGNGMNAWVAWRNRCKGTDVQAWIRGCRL

B1: anti-HER2 Fab HER20003 (Fab, V domains shown)
VH: QVQLVQSGAEVKKPGESLKISCKGSGYSFTSYWIAWVRQMPGKGLEYMGLIYPGDSDTKYSPSFQGQVTISVDKSVSTAYLQWSSLKPSDSAVYFCARHDVAYCSSSRCLTWPEYFQHWGQGTLVTVSS
VL: QSVLTQPPSVSAAPGQKVTISCSGSSSNIGNNYVSWYQQLPGTAPKLLIYGHTNRPAGVPDRFSGSKSGTSASLAISGFRSEDEADYYCASWDYTLSGWVFGGGTKLTVL
notes: as the heavy chain of m31 (G98A) with another CDR H3; as the light chain of m31; source: CHO cells, transiently transfected, purified (CaptureSelect CH1-XL)
Kd [1]: 2.8 nM

B4: anti-HER2 Fab HER20004 (Fab, V domains shown)
VH: B1 VH with A102G, Y103Q, S105D, R108N, L110A, T111K
VL: B1 VL
notes: as for B1
Kd [1]: 3.4 nM

B6: anti-HER2 Fab HER20009 (Fab, V domains shown)
VH: B1 VH with T111E
VL: B1 VL
notes: as the heavy chain of m31 (G98A) with another CDR H3; as the light chain of m31; From the HER2affmat library; source: CHO cells, transiently transfected, purified (CaptureSelect CH1-XL)
fold improvement in affinity over G98A [1]: ~300 fold

B9: anti-HER2 Fab HER20006 (Fab, V domains shown)
VH: B1 VH with A102G, Y103W, S105T, R108N, L110A, T111K
VL: B1 VL
notes: as for B6
fold improvement in affinity over G98A [1]: ~300 fold

B12: anti-HEL nanobody M15 (VHH)
VHH: QVQLQESGGGLVQAGGSLRLSCAASGTISSQKLMGWYRQAPGKEREFVAAINDGATTNYADSVKGRFTISRDNAKNTVYLQMNSLKPEDTAVYYCAAYYDVRGYYWGTFGYWGQGTQVTVSS
notes: synthetic nanobody from the yeast surface display library; also called VHH-M15; source: E. coli, periplasmic extract (vector pSBinit)
Kd [2]: 9.81 nM

B13: anti-HEL nanobody M5 (VHH)
VHH: QVQLQESGGGLVQAGGSLRLSCAASGSIFYYTDMGWYRQAPGKEREFVASIGYGGITYYADSVKGRFTISRDNAKNTVYLQMNSLKPEDTAVYYCAVQRSFESYGYWGHVYWGQGTQVTVSS
notes: synthetic nanobody from the yeast surface display library; also called VHH-M5; source: E. coli, periplasmic extract (vector pSBinit)
Kd [2]: 19 nM

B14: anti-HEL nanobody M6 (VHH)
VHH: B13 VHH with F29S, Y30R, Y31D, T32P, G52S, Y53G, G55T, I56T
notes: synthetic nanobody from the yeast surface display library; also called VHH-M6; source: E. coli, periplasmic extract (vector pSBinit)
Kd [2]: 14.2 nM

Now from value to binder:

binding result [1]: binds
B2: anti-HER2 Fab HER20008 (Fab, V domains shown)
VH: B1 VH with S105D, S107D, L110A, T111K
VL: B1 VL
notes: as for B6

binding result [1]: binds
B3: anti-HER2 Fab HER20007 (Fab, V domains shown)
VH: B1 VH with A102G, S105M, R108N, L110A, T111K
VL: B1 VL
notes: as for B6

Kd [1]: 0.0607 nM
B5: anti-HER2 Fab HER20013 (Fab, V domains shown)
VH: B1 VH with A102G, S106T
VL: B1 VL
notes: as the heavy chain of m31 (G98A) with another CDR H3; as the light chain of m31; Top clone of the ML set (ml/mut); source: CHO cells, transiently transfected, purified (CaptureSelect CH1-XL)

fold improvement in affinity over G98A [1]: ~300 fold
B7: anti-HER2 Fab HER20010 (Fab, V domains shown)
VH: B1 VH with T111D
VL: B1 VL
notes: as for B6

fold improvement in affinity over G98A [1]: > 1000 fold
B8: anti-HER2 Fab HER20015 (Fab, V domains shown)
VH: B1 VH with A102G, S105D, S106T, S107P, R108T, L110D, T111K
VL: B1 VL
notes: as the heavy chain of m31 (G98A) with another CDR H3; as the light chain of m31; From the ML set (ml/mut); source: CHO cells, transiently transfected, purified (CaptureSelect CH1-XL)

binding result [1]: binds
B10: anti-HER2 Fab HER20011 (Fab, V domains shown)
VH: B1 VH with A102G, Y103L, R108N, L110A, T111K
VL: B1 VL
notes: as for B6

Kd [1]: 0.283 nM
B11: anti-HER2 Fab HER20025 (Fab, V domains shown)
VH: B1 VH with A102G, S105D, S106T, S107P, R108T, L110N, T111K
VL: B1 VL
notes: as the heavy chain of m31 (G98A) with another CDR H3; as the light chain of m31; From the random set (random/mut); source: CHO cells, transiently transfected, purified (CaptureSelect CH1-XL)

binding result [2]: binds
B15: anti-HEL nanobody C1 (VHH)
VHH: QVQLQESGGGLVQAGGSLRLSCAASGSIFWAGYMGWYRQAPGKEREFVAAIDYGANTYYADSVKGRFTISRDNAKNTVYLQMNSLKPEDTAVYYCAVDRQPYYRRDNSHLYWGQGTQVTVSS
notes: synthetic nanobody from the yeast surface display library, picked as a random colony after R3 MACS; Framework is that of the library; source: E. coli, periplasmic extract (vector pSBinit)

binding result [2]: binds
B16: anti-HEL nanobody C2 (VHH)
VHH: QVQLQESGGGLVQAGGSLRLSCAASGNISADASMGWYRQAPGKEREFVAAIARGATTYYADSVKGRFTISRDNAKNTVYLQMNSLKPEDTAVYYCAVDQYDVTKRYIGHIYWGQGTQVTVSS
notes: as for B15
